# Molecular target: RNA polymerase II (largest subunit, with its C-terminal domain) (Homo sapiens, UniProt P24928)
# Test: far-Western, overlay or dot blot
row,Binder,binding result
1,"pCTD-S7S5 scFv-Fc fusion protein (scFv, V domains shown) VH: EVQLVESGGGLVQPGGSLRLSCAASGFNIKDTYIHWVRQAPGKGLEWVARIYPTNGYTRYADSVKGRFTISADTSKNTAYLQMNSLRAEDTAVYYCSRDPWSRWAKVFDYWGQGTLVTVSS VL: not shown",binds
2,"pCTD-1stS2 scFv-Fc fusion protein (scFv, V domains shown) VH: EVQLVESGGGLVQPGGSLRLSCAASGFNIKDTYIHWVRQAPGKGLEWVARIYPTNGYTRYADSVKGRFTISADTSKNTAYLQMNSLRAEDTAVYYCSRGAFWFSRSHFDYWGQGTLVTVSS VL: not shown",binds
3,"pCTD-S7 scFv-Fc fusion protein (scFv, V domains shown) VH: EVQLVESGGGLVQPGGSLRLSCAASGFNIKDTYIHWVRQAPGKGLEWVARIYPTNGYTRYADSVKGRFTISADTSKNTAYLQMNSLRAEDTAVYYCSRGISYPWQRGYYYAMDVWGQGTLVTVSS VL: not shown",binds
4,"pCTD-2ndS2 scFv-Fc fusion protein (scFv, V domains shown) VH: EVQLVESGGGLVQPGGSLRLSCAASGFNIKDTYIHWVRQAPGKGLEWVARIYPTNGYTRYADSVKGRFTISADTSKNTAYLQMNSLRAEDTAVYYCSRDRAQWWEYKNAMDVWGQGTLVTVSS VL: not shown",binds

# The remaining lines, values ahead:
row,binding result,Binder
1,binds,"pCTD-1stS5 scFv-Fc fusion protein (scFv, V domains shown) VH: EVQLVESGGGLVQPGGSLRLSCAASGFNIKDTYIHWVRQAPGKGLEWVARIYPTNGYTRYADSVKGRFTISADTSKNTAYLQMNSLRAEDTAVYYCSRGPWPGSHHKYAMDVWGQGTLVTVSS VL: not shown"
2,binds,"PanCTD scFv-Fc fusion protein (scFv, V domains shown) VH: EVQLVESGGGLVQPGGSLRLSCAASGFNIKDTYIHWVRQAPGKGLEWVARIYPTNGYTRYADSVKGRFTISADTSKNTAYLQMNSLRAEDTAVYYCSRYGRRGVFDYWGQGTLVTVSS VL: not shown"
